Measured values: the supplement of paper PMC10899765

Assays:
Details in all cases: 20 nM; 72 h
MCF10A [1] = experiment: percent viability (nuclei count relative to siNT); higher = more viable cells
Description: (§1)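 After 72 h, cells were fixed and stained with Hoechst and anti-fibrillarin, and nucleoli per nucleus were counted with CellProfiler. Values are plate-adjusted percent effect for the one-nucleolus and 5+ nucleoli phenotypes, normalised to siNT (0%) and to the positive controls siNOL11 or siKIF11 (100%), as the mean of biological triplicates. Percent viability is the nuclei count relative to siNT.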

MCF10A [2] = experiment: one-nucleolus phenotype percent effect (relative to siNT 0% and siNOL11 100%); higher = more cells with one nucleolus (ribosome biogenesis inhibition)
Description: as §1

MCF10A [3] = experiment: 5+ nucleoli phenotype percent effect (relative to siNT 0% and siKIF11 100%); higher = more cells with five or more nucleoli
Description: as §1

CAGGCAGUGACUGUUCAGACGUC [hsa-miR-2682-5p]
percent viability (MCF10A [1]): 12.3%
one-nucleolus phenotype percent effect (MCF10A [2]): 51.4%
5+ nucleoli phenotype percent effect (MCF10A [3]): -23.5%

UGAUUGGUACGUCUGUGGGUAG [hsa-miR-509-3p]
percent viability (MCF10A [1]): 37.8%
one-nucleolus phenotype percent effect (MCF10A [2]): 34%
5+ nucleoli phenotype percent effect (MCF10A [3]): -46.5%

AAAAGCACUUUUCUGUCUCCCAG [hsa-miR-6835-3p]
percent viability (MCF10A [1]): 41.3%
one-nucleolus phenotype percent effect (MCF10A [2]): 12.3%
5+ nucleoli phenotype percent effect (MCF10A [3]): -36%

UGUGGUAGAUAUAUGCACGAU [hsa-miR-4536-5p]
percent viability (MCF10A [1]): 25.9%
one-nucleolus phenotype percent effect (MCF10A [2]): 26.2%
5+ nucleoli phenotype percent effect (MCF10A [3]): -25.4%

UCUCAGUAAGUGGCACUCUGU [hsa-miR-4797-3p]
percent viability (MCF10A [1]): 47.4%
one-nucleolus phenotype percent effect (MCF10A [2]): 57.2%
5+ nucleoli phenotype percent effect (MCF10A [3]): -38.9%

GGCUCAAUCUCUGGUCCUGCAGCC [hsa-miR-7158-5p]
percent viability (MCF10A [1]): 132%
one-nucleolus phenotype percent effect (MCF10A [2]): -21.5%
5+ nucleoli phenotype percent effect (MCF10A [3]): 25.6%

GUGAGCCAGUGGAAUGGAGAGG [hsa-miR-6807-5p]
percent viability (MCF10A [1]): 74.2%
one-nucleolus phenotype percent effect (MCF10A [2]): -20.6%
5+ nucleoli phenotype percent effect (MCF10A [3]): 16.4%

AAAGGAAAGUGUAUCCUAAAAG [hsa-miR-651-3p]
percent viability (MCF10A [1]): 139%
one-nucleolus phenotype percent effect (MCF10A [2]): -19.5%
5+ nucleoli phenotype percent effect (MCF10A [3]): 37%

UAGACCAUCUUUCUAGAGUAU [hsa-miR-6502-3p]
percent viability (MCF10A [1]): 102%
one-nucleolus phenotype percent effect (MCF10A [2]): -0.125%
5+ nucleoli phenotype percent effect (MCF10A [3]): -0.273%

UUGGCCACAAUGGGUUAGAAC [hsa-miR-588]
percent viability (MCF10A [1]): 40.2%
one-nucleolus phenotype percent effect (MCF10A [2]): 9.67%
5+ nucleoli phenotype percent effect (MCF10A [3]): 11.2%

UUCUCUCUGUCUUUCUCUCUCAG [hsa-miR-6873-3p]
percent viability (MCF10A [1]): 35.2%
one-nucleolus phenotype percent effect (MCF10A [2]): -19%
5+ nucleoli phenotype percent effect (MCF10A [3]): 46.6%

ACUCUUUCCCUGUUGCACUAC [hsa-miR-130b-5p]
percent viability (MCF10A [1]): 54.3%
one-nucleolus phenotype percent effect (MCF10A [2]): -13.5%
5+ nucleoli phenotype percent effect (MCF10A [3]): 16.1%

CACCGACUCUGUCUCCUGCAG [hsa-miR-6510-3p]
percent viability (MCF10A [1]): 69.9%
one-nucleolus phenotype percent effect (MCF10A [2]): 11.7%
5+ nucleoli phenotype percent effect (MCF10A [3]): -12.7%

AAAUGGGUGGUCUGAGGCAA [hsa-miR-4506]
percent viability (MCF10A [1]): 46.9%
one-nucleolus phenotype percent effect (MCF10A [2]): 36.1%
5+ nucleoli phenotype percent effect (MCF10A [3]): -7.36%

UCUACAAAGGAAAGCGCUUUCU [hsa-miR-1283]
percent viability (MCF10A [1]): 148%
one-nucleolus phenotype percent effect (MCF10A [2]): -26.4%
5+ nucleoli phenotype percent effect (MCF10A [3]): 29.7%

ACUGAUUUCUUUUGGUGUUCAG [hsa-miR-29a-5p]
percent viability (MCF10A [1]): 134%
one-nucleolus phenotype percent effect (MCF10A [2]): -23.9%
5+ nucleoli phenotype percent effect (MCF10A [3]): 23.5%

AGUGCCUGAGGGAGUAAGAGCCC [hsa-miR-550a-5p]
percent viability (MCF10A [1]): 47.1%
one-nucleolus phenotype percent effect (MCF10A [2]): 7.21%
5+ nucleoli phenotype percent effect (MCF10A [3]): 12.6%

AACUAGCUCUGUGGAUCCUGAC [hsa-miR-4661-5p]
percent viability (MCF10A [1]): 13.9%
one-nucleolus phenotype percent effect (MCF10A [2]): 21.8%
5+ nucleoli phenotype percent effect (MCF10A [3]): -18.4%

ACACAGUGCUUCAUCCACUACU [hsa-miR-3681-3p]
percent viability (MCF10A [1]): 76.6%
one-nucleolus phenotype percent effect (MCF10A [2]): -4.5%
5+ nucleoli phenotype percent effect (MCF10A [3]): -3.88%

GGGACUAGGAUGCAGACCUCC [hsa-miR-6503-3p]
percent viability (MCF10A [1]): 49.8%
one-nucleolus phenotype percent effect (MCF10A [2]): 9.94%
5+ nucleoli phenotype percent effect (MCF10A [3]): -6.73%

UCGUACCGUGAGUAAUAAUGCG [hsa-miR-126-3p]
percent viability (MCF10A [1]): 30.2%
one-nucleolus phenotype percent effect (MCF10A [2]): 5.16%
5+ nucleoli phenotype percent effect (MCF10A [3]): -0.677%

CAAAACUGGCAAUUACUUUUGC [hsa-miR-548a-3p]
percent viability (MCF10A [1]): 77.4%
one-nucleolus phenotype percent effect (MCF10A [2]): -17.2%
5+ nucleoli phenotype percent effect (MCF10A [3]): 45.7%

UCCUAAAUCUGAAAGUCCAAAA [hsa-miR-5009-3p]
percent viability (MCF10A [1]): 117%
one-nucleolus phenotype percent effect (MCF10A [2]): -25.9%
5+ nucleoli phenotype percent effect (MCF10A [3]): 46.2%

CUCUAGAGGGAAGCACUUUCUG [hsa-miR-520c-5p]
percent viability (MCF10A [1]): 82.7%
one-nucleolus phenotype percent effect (MCF10A [2]): -6.38%
5+ nucleoli phenotype percent effect (MCF10A [3]): 17.5%
